# T1: DKK1-APP (human, UniProt O94907 32-266)
# T1 sequence: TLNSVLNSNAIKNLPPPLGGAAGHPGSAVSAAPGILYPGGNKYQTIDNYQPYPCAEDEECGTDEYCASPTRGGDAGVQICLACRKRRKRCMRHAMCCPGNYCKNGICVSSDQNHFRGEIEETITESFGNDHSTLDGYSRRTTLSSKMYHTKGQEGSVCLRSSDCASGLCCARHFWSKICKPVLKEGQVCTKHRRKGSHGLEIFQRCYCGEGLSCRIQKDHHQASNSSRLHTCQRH
# T2: recombinant human DKK1 (human, UniProt O94907 32-266)
# T2 sequence: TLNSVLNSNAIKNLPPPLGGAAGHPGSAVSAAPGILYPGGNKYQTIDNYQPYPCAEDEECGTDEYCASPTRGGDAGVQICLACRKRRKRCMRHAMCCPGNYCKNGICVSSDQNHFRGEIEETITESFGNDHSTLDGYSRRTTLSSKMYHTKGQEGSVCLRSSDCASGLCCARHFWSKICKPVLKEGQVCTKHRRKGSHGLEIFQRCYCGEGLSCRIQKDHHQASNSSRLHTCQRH
# T3: mouse DKK1 (R&D Systems) (mouse, UniProt O54908 32-272)
# T3 construct: Bought protein
# T3 sequence (looked up): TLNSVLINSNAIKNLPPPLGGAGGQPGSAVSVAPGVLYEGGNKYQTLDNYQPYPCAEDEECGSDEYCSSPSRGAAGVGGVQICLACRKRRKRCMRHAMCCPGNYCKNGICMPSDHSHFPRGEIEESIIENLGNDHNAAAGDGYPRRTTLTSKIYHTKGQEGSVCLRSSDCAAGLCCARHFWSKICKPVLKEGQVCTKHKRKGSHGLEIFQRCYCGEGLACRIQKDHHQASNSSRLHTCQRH
# T4: cynomolgus DKK1 (cynomolgus monkey (Macaca fascicularis), UniProt A0A7N9IE82 32-266)
# T4 construct: also called cyno DKK1; monkey DKK1 (Novartis)
# T4 sequence: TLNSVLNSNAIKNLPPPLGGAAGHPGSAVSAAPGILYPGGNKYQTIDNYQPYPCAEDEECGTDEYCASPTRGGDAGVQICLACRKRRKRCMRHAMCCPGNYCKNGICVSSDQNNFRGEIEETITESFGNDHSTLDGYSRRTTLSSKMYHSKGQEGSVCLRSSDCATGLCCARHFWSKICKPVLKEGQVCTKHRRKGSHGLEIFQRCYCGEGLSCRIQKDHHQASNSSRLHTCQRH
# T5: biotinylated human DKK1 (human, UniProt O94907 32-266, biotinylated (sites not given))
# T5 construct: also called biotinylated DKK1; human recombinant, biotinylated DKK1
# T5 sequence: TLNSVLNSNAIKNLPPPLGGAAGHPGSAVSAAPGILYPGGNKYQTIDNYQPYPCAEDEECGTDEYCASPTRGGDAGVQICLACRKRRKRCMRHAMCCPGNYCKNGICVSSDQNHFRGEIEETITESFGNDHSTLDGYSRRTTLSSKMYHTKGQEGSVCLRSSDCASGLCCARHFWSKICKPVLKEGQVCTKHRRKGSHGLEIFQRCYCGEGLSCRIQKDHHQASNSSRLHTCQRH
# How the values were obtained:
# DKK1-APP [1] = target: T1, DKK1-APP; assay: cell-based or functional assay
# recombinant human DKK1 [2] = target: T2, recombinant human DKK1; assay: cell-based or functional assay
# recombinant human DKK1 [3] = target: T2, recombinant human DKK1; assay: solution equilibrium titration (SET), ECL (BioVeris), Fab
# Protocol: (§1) Electrochemiluminescence (ECL) based affinity determination in solution and data evaluation are basically performed as described by Haenel et al., 2005. […] Subsequently, the concentration of unbound Fab is quantified by ECL detection using the M-SERIES® 384 analyzer (BioVeris Europe).
# (§2) Affinities are calculated according to Haenel et al., 2005 Anal Biochem 339.1:182-184.
# mouse DKK1 (R&D Systems) [4] = target: T3, mouse DKK1 (R&D Systems); assay: as above
# Protocol: as §1, §2
# cynomolgus DKK1 [5] = target: T4, cynomolgus DKK1; assay: as above
# Protocol: as §1, §2
# biotinylated human DKK1 = target: T5, biotinylated human DKK1; assay: ELISA, biotinylated DKK1 on Neutravidin plates, Fab 1 ug/ml, anti-FLAG-AP detection
# Protocol: Binding specificity of the matured Fabs in the presence of 50% human serum (HS) is determined. […] After coating of the antigen, wells are blocked with TBS/0.05% Tween (TBS-T) supplemented with 1% BSA for 1 h at room temperature. Purified Fabs described above are diluted either in TBS/4% BSA or TBS/50% HS at a final concentration of 1 μg/ml, added to the coated and blocked wells and the plates are incubated for 1 h at room temperature. For detection, an anti-FLAG alkaline phosphatase (AP)-conjugated antibody (1:5000 dilution in TBST) and the fluorogenic substrate AttoPhos (Roche) are used. After each incubation, the wells of the microtiter plates are washed with TBST five times, except after the final incubation step with the labeled secondary antibody when wells are washed three times.
# The fluorescence is measured in a TECAN Spectrafluor plate reader.
# DKK1-APP [6] = target: T1, DKK1-APP; assay: cell-based or functional assay; remark: listed apart in the source
# DKK1-APP [7] = target: T1, DKK1-APP; assay: cell-based or functional assay; remark: listed apart in the source
# recombinant human DKK1 [8] = target: T2, recombinant human DKK1; assay: SPR (Biacore), DKK1 immobilised on CM5 chip, Fab as analyte
# Protocol: (§3) Using these clones, kinetic SPR analysis is performed on a. […] The Fab preparations are applied in concentration series of 16-500 nM at a flow rate of 20 μl/min. Association phase is set to 60 s and dissociation phase to 120 s.
# mouse DKK1 (R&D Systems) [9] = target: T3, mouse DKK1 (R&D Systems); assay: as above
# Protocol: as §3
# cynomolgus DKK1 [10] = target: T4, cynomolgus DKK1; assay: as above
# Protocol: as §3
# recombinant human DKK1 [11] = target: T2, recombinant human DKK1; assay: as above; remark: listed apart in the source
# Protocol: as §3
# mouse DKK1 (R&D Systems) [12] = target: T3, mouse DKK1 (R&D Systems); assay: as above; remark: listed apart in the source
# Protocol: as §3
# cynomolgus DKK1 [13] = target: T4, cynomolgus DKK1; assay: as above; remark: listed apart in the source
# Protocol: as §3
# recombinant human DKK1 [14] = target: T2, recombinant human DKK1; assay: as above; remark: listed apart in the source
# Protocol: as §3
# mouse DKK1 (R&D Systems) [15] = target: T3, mouse DKK1 (R&D Systems); assay: as above; remark: listed apart in the source
# Protocol: as §3
# cynomolgus DKK1 [16] = target: T4, cynomolgus DKK1; assay: as above; remark: listed apart in the source
# Protocol: as §3
Luciferase reporter assay w/o Kremen; Activity in 15% Human serum (%) (DKK1-APP [1]),TCF/LEF luc assay w/Kremen: EC50 (recombinant human DKK1 [2]) [nM],Kd (recombinant human DKK1 [3]) [nM],Kd (mouse DKK1 (R&D Systems) [4]) [nM],Kd (cynomolgus DKK1 [5]) [nM],Binding activity w/50% Human serum vs 4% BSA (%) (biotinylated human DKK1),Luciferase reporter assay; EC50 (DKK1-APP [6]) [nM],EC50 (DKK1-APP [7]) [nM],Kd (recombinant human DKK1 [8]) [nM],Kd (mouse DKK1 (R&D Systems) [9]) [nM],Kd (cynomolgus DKK1 [10]) [nM],Kd (recombinant human DKK1 [11]) [nM],Kd (mouse DKK1 (R&D Systems) [12]) [nM],Kd (cynomolgus DKK1 [13]) [nM],Kd (recombinant human DKK1 [14]) [nM],Kd (mouse DKK1 (R&D Systems) [15]) [nM],Kd (cynomolgus DKK1 [16]) [nM],Binder
60,0.6,0.1,0.071,0.058,100,,,,,,,,,,,,"MOR04952 (Fab, V domains shown) VH: QVQLVESGGGLVQPGGSLRLSCAASGFTFSSYWMSWVRQAPGKGLEWVSVISSDSSSTYYADSVKGRFTISRDNSKNTLYLQMNSLRAEDTAVYYCARHGIDFDHWGQGTLVTVSS VL: DIALTQPASVSGSPGQSITISCTGTSSDLGGYNYVSWYQQHPGKAPKLMIYDVNNRPSGVSNRFSGSKSGNTASLTISGLQAEDEADYYCQSYDSPTDSVVFGGGTKLTVLG"
,,,,,,58,58,3.2,3.6,1.7,3.2,3.6,1.7,3.2,3.6,1.7,"MOR04470 (Fab, V domains shown, Fab with C-terminal FLAG and 6xHis tags) VH: QVQLVESGGGLVQPGGSLRLSCAASGFTFSSYWMSWVRQAPGKGLEWVSVISSDSSSTYYADSVKGRFTISRDNSKNTLYLQMNSLRAEDTAVYYCARHGIDFDHWGQGTLVTVSS VL: DIALTQPASVSGSPGQSITISCTGTSSDLGGYNYVSWYQQHPGKAPKLMIYDVNNRPSGVSNRFSGSKSGNTASLTISGLQAEDEADYYCQSYASGNTKVVFGGGTKLTVLG"
74,0.5,0.069,0.074,0.08,89,,,,,,,,,,,,"MOR04945 (Fab, V domains shown) VH: QVQLVESGGGLVQPGGSLRLSCAASGFTFSSYWMSWVRQAPGKGLEWVSVISSDSSSTYYADSVKGRFTISRDNSKNTLYLQMNSLRAEDTAVYYCARHGIDFDHWGQGTLVTVSS VL: DIALTQPASVSGSPGQSITISCTGTSSDLGGYNYVSWYQQHPGKAPKLMIYDVNNRPSGVSNRFSGSKSGNTASLTISGLQAEDEADYYCQTYDQIKLSAVFGGGTKLTVLG"
60,0.2,0.025,0.041,0.036,93,,,,,,,,,,,,"MOR04946 (Fab, V domains shown) VH: QVQLVESGGGLVQPGGSLRLSCAASGFTFNNYGMTWVRQAPGKGLEWVSGISGSGSYTYYADSVKGRFTISRDNSKNTLYLQMNSLRAEDTAVYYCARTIYMDYWGQGTLVTVSS VL: DIVLTQSPATLSLSPGERATLSCRASQNLFSPYLAWYQQKPGQAPRLLIYGASNRATGVPARFSGSGSGTDFTLTISSLEPEDFAVYYCQQYLTLPLTFGQGTKVEIKR"
88,0.5,0.038,0.044,0.051,89,,,,,,,,,,,,"MOR04913 (Fab, V domains shown) VH: QVQLVESGGGLVQPGGSLRLSCAASGFTFNNYGMTWVRQAPGKGLEWVSGISGSGSYTYYADSVKGRFTISRDNSKNTLYLQMNSLRAEDTAVYYCARTIYMDYWGQGTLVTVSS VL: DIVLTQSPATLSLSPGERATLSCRASQNLFSPYLAWYQQKPGQAPRLLIYGASNRATGVPARFSGSGSGTDFTLTISSLEPEDFAVYYCQQYMTLPLTFGQGTKVEINR"
70,0.5,0.057,0.065,0.067,100,,,,,,,,,,,,"MOR04948 (Fab, V domains shown) VH: QVQLVESGGGLVQPGGSLRLSCAASGFTFSSYWMSWVRQAPGKGLEWVSGISYSGSNTHYADSVKGRFTISRDNSKNTLYLQMNSLRAEDTAVYYCARMGIDLDYWGQGTLVTVSS VL: DIALTQPASVSGSPGQSITISCTGTSSDVGGFNYVSWYQQHPGKAPKLMIHDGSNRPSGVSNRFSGSKSGNTASLTISGLQAEDEADYYCQTWDSLSFFVFGGGTKLTVLG"
90,0.3,0.024,0.042,0.037,84,,,,,,,,,,,,"MOR04910 (Fab, V domains shown, also called anti-DKK1 FAb MOR04910) VH: QVQLVESGGGLVQPGGSLRLSCAASGFTFSSYWMSWVRQAPGKGLEWVSGISYSGSNTHYADSVKGRFTISRDNSKNTLYLQMNSLRAEDTAVYYCARMGIDLDYWGQGTLVTVSS VL: DIALTQPASVSGSPGQSITISCTGTSSDVGGFNYVSWYQQHPGKAPKLMIHDGSNRPSGVSNRFSGSKSGNTASLTISGLQAEDEADYYCQSWDVSPITAVFGGGTKLTVLG"
75,1.8,0.053,0.04,0.05,90,,,,,,,,,,,,"MOR04920 (Fab, V domains shown) VH: QVQLVESGGGLVQPGGSLRLSCAASGFTFSSYWMSWVRQAPGKGLEWVSSIEHKDAGYTTWYAAGVKGRFTISRDNSKNTLYLQMNSLRAEDTAVYYCARHGIDFDHWGQGTLVTVSS VL: DIALTQPASVSGSPGQSITISCTGTSSDLGGYNYVSWYQQHPGKAPKLMIYDVNNRPSGVSNRFSGSKSGNTASLTISGLQAEDEADYYCQSYASGNTKVVFGGGTKLTVLG"
,1.7,0.032,0.03,0.058,,,,,,,,,,,,,"MOR04947 (Fab, V domains shown) VH: QVQLVQSGAEVKKPGESLKISCKGSGYSFTNYYIGWVRQMPGKGLEWMGIIVPGTSYTIYSPSFQGQVTISADKSISTAYLQWSSLKASDTAMYYCARGIPFRMRGFDYWGQGTLVTVSS VL: DIVLTQPPSVSGAPGQRVTISCSGSSSNIGSSFVNWYQQLPGTAPKLLIGNNSNRPSGVPDRFSGSKSGTSASLAITGLQSEDEADYYCASFDMGSPNVVFGGGTKLTVLG"

# From patent US20120023600A1 (Novartis, published 2012)
